Laboratory results as given in publication PMC9482650, “Quantitative fragmentomics allow affinity mapping of interactomes” (Nature Communications, 2022).
Values belong to the binder of their own block, whether it stands above or below them.

How the values were obtained:
Assay in all cases: holdup assay
Set-up in all cases: key: below the threshold = too weak to quantify, mostly under pKd 3.1 to 4
Details in all cases: plain residues with an end cap or a label only (N-terminal biotin on a linker: ado-ado)
MAGI2_5, Q86UL8 = target: MAGI2_5, Q86UL8
PARD3_3, Q8TEW0 = target: PARD3_3, Q8TEW0
SYNJ2BP, P57105 = target: T1, SYNJ2BP, P57105
T1 sequence (P57105 8-110, limits assumed, looked up): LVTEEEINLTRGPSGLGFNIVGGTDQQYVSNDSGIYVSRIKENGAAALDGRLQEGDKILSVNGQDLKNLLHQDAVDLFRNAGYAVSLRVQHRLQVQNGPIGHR

SNTG2, Q9NY99 = target: T2, SNTG2, Q9NY99
T2 sequence (Q9NY99 68-166, limits assumed, looked up): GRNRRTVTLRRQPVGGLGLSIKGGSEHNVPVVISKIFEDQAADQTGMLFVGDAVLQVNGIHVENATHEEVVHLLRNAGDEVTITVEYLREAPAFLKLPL

HTRA3, P83110 = target: T3, HTRA3, P83110
T3 sequence (P83110 354-453, limits assumed, looked up): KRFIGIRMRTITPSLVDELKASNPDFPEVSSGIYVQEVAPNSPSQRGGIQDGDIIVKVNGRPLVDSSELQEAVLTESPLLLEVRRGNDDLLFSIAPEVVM

IL16_1, Q14005 = target: IL16_1, Q14005
NOS1, P29475 = target: NOS1, P29475
SNTG1, Q9NSN8 = target: T4, SNTG1, Q9NSN8
T4 sequence (Q9NSN8 52-150, limits assumed, looked up): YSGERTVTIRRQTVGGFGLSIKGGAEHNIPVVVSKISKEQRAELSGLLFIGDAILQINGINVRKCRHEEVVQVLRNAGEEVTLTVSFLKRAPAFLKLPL

SNTA1, Q13424 = target: T5, SNTA1, Q13424
T5 sequence (Q13424 82-180, limits assumed, looked up): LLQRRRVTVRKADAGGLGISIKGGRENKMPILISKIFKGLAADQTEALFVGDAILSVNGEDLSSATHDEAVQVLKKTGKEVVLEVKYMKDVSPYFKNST

Inadl_3, Q8NI35 = target: Inadl_3, Q8NI35
TJP1_2, Q07157 = target: TJP1_2, Q07157
DLG2_2, Q15700 = target: DLG2_2, Q15700
NHERF2_2, Q15599 = target: NHERF2_2, Q15599
ARHGEF12, Q9NZN5-2 = target: ARHGEF12, Q9NZN5-2
SCRIB_2, Q14160 = target: SCRIB_2, Q14160
PARD3B_1, Q8TEW8 = target: T6, PARD3B_1, Q8TEW8
T6 sequence (Q8TEW8 196-299, limits assumed, looked up): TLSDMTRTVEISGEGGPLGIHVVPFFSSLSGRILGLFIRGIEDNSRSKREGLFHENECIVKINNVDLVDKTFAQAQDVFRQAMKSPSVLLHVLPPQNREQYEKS

Inadl_4, Q8NI35 = target: Inadl_4, Q8NI35
MAST1, Q9Y2H9 = target: MAST1, Q9Y2H9
Inadl_9, Q8NI35 = target: Inadl_9, Q8NI35
HTRA4, P83105 = target: T7, HTRA4, P83105
T7 sequence (P83105 378-476, limits assumed, looked up): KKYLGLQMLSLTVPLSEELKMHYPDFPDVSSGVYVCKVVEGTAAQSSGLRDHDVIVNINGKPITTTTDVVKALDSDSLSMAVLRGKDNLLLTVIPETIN

NHERF4_1, Q86UT5-2 = target: NHERF4_1, Q86UT5-2
LNX2_3, Q8N448 = target: T8, LNX2_3, Q8N448
T8 sequence (Q8N448 463-564, limits assumed, looked up): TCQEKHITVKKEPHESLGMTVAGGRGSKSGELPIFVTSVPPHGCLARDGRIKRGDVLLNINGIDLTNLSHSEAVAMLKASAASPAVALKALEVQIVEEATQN

SIPA1L2, Q9P2F8 = target: T9, SIPA1L2, Q9P2F8
T9 sequence (Q9P2F8 945-1036, limits assumed, looked up): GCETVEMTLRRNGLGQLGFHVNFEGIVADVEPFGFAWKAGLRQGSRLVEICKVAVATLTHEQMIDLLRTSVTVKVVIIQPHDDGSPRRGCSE

MPP7, Q5T2T1 = target: T10, MPP7, Q5T2T1
T10 sequence (Q5T2T1 134-230, limits assumed, looked up): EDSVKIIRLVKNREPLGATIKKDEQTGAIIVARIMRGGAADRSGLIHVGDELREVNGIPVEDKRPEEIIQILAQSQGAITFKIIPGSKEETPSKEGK

ARHGEF11, O15085 = target: T11, ARHGEF11, O15085
T11 sequence (O15085 42-136, limits assumed, looked up): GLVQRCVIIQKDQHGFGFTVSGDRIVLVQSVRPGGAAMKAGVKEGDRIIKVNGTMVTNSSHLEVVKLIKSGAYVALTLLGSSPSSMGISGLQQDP

PCLO, Q9Y6V0 = target: T12, PCLO, Q9Y6V0
T12 sequence (Q9Y6V0 4491-4600, limits assumed, looked up): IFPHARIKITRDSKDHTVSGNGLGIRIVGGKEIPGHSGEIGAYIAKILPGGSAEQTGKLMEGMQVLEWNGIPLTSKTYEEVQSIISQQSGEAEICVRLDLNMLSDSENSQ

Chain of ARHGEF12, Q9NZN5-2 (Q9NZN5 other isoform, or with tags, fused parts or gaps): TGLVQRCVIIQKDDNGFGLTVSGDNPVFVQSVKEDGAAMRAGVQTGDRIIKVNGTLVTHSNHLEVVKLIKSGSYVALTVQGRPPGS
Chain of MAGI2_5, Q86UL8 (Q86UL8 915-1017): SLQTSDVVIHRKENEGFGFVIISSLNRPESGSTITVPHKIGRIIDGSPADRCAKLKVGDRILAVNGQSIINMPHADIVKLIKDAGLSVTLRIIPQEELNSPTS
Chain of Inadl_9, Q8NI35 (Q8NI35 1530-1615): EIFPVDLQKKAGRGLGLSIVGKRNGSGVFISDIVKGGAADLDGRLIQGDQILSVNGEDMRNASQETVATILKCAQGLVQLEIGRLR
Chain of NOS1, P29475 (P29475 9-101): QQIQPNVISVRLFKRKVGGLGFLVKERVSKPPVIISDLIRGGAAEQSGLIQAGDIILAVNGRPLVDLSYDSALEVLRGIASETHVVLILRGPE
Chain of Inadl_4, Q8NI35 (Q8NI35 547-651): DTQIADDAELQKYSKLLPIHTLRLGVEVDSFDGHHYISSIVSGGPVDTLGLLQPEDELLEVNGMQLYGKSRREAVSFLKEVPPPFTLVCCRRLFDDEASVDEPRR
Chain of PARD3_3, Q8TEW0 (Q8TEW0 582-685): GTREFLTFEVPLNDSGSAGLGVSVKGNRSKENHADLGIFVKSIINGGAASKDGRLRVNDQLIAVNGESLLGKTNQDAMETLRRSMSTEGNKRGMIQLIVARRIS
Chain of Inadl_3, Q8NI35 (Q8NI35 359-469): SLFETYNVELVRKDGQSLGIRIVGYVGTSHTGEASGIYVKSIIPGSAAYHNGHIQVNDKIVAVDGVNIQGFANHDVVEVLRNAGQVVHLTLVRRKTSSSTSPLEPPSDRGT
Chain of NHERF4_1, Q86UT5-2 (Q86UT5 other isoform, or with tags, fused parts or gaps): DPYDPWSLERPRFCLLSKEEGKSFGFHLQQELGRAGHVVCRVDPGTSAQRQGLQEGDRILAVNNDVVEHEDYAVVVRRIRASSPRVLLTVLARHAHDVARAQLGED
Chain of NHERF2_2, Q15599 (Q15599 142-238): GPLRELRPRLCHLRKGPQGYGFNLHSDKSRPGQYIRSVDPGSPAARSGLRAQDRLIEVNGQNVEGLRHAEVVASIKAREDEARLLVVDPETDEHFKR
Chain of MAST1, Q9Y2H9 (Q9Y2H9 962-1065): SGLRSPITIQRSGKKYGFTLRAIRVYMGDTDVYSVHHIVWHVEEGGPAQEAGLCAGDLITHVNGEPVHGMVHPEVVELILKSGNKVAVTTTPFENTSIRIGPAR
Chain of SCRIB_2, Q14160 (Q14160 857-960): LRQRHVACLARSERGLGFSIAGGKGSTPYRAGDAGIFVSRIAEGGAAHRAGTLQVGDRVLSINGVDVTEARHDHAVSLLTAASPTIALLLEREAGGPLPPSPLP
Chain of TJP1_2, Q07157 (Q07157 181-274): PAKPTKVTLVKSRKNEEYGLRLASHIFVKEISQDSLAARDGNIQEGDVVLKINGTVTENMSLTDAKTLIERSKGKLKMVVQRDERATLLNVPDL
Chain of DLG2_2, Q15700 (Q15700 189-283): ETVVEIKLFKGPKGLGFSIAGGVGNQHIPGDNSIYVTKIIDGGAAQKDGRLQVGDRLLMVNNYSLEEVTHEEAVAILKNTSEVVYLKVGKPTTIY
Chain of IL16_1, Q14005 (Q14005 210-306): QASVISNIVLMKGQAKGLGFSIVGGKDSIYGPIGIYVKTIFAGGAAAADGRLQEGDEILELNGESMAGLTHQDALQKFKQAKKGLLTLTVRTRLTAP

Binder: VRNLPESEEL [MYOZ3, Q8TDC0]
- pKd (MAGI2_5, Q86UL8): below the threshold
- pKd (PARD3_3, Q8TEW0): below the threshold
- pKd (SYNJ2BP, P57105): below the threshold
- pKd (SNTG2, Q9NY99): below the threshold
- pKd (HTRA3, P83110): below the threshold
- pKd (IL16_1, Q14005): below the threshold
- pKd (NOS1, P29475): below the threshold
- pKd (SNTG1, Q9NSN8): below the threshold
- pKd (SNTA1, Q13424): 3.57
- pKd (Inadl_3, Q8NI35): below the threshold
- pKd (TJP1_2, Q07157): below the threshold
- pKd (DLG2_2, Q15700): below the threshold
- pKd (NHERF2_2, Q15599): 3.64
- pKd (ARHGEF12, Q9NZN5-2): below the threshold
- pKd (SCRIB_2, Q14160): below the threshold
- pKd (PARD3B_1, Q8TEW8): 3.58
- pKd (Inadl_4, Q8NI35): below the threshold
- pKd (MAST1, Q9Y2H9): 4.11
- pKd (Inadl_9, Q8NI35): below the threshold
- pKd (HTRA4, P83105): 3.94
- pKd (NHERF4_1, Q86UT5-2): 4.3
- pKd (LNX2_3, Q8N448): below the threshold
- pKd (SIPA1L2, Q9P2F8): below the threshold
- pKd (MPP7, Q5T2T1): below the threshold
- pKd (ARHGEF11, O15085): 3.83
- pKd (PCLO, Q9Y6V0): below the threshold

Binder: QSLNRMEYIV [JAG1, P78504]
- pKd (MAGI2_5, Q86UL8): below the threshold
- pKd (PARD3_3, Q8TEW0): 4.37
- pKd (SYNJ2BP, P57105): below the threshold
- pKd (SNTG2, Q9NY99): below the threshold
- pKd (HTRA3, P83110): 3.87
- pKd (IL16_1, Q14005): 3.91
- pKd (NOS1, P29475): 3.54
- pKd (SNTG1, Q9NSN8): below the threshold
- pKd (SNTA1, Q13424): below the threshold
- pKd (Inadl_3, Q8NI35): 5.17
- pKd (TJP1_2, Q07157): below the threshold
- pKd (DLG2_2, Q15700): below the threshold
- pKd (NHERF2_2, Q15599): below the threshold
- pKd (ARHGEF12, Q9NZN5-2): below the threshold
- pKd (SCRIB_2, Q14160): below the threshold
- pKd (PARD3B_1, Q8TEW8): 3.83
- pKd (Inadl_4, Q8NI35): below the threshold
- pKd (MAST1, Q9Y2H9): 3.49
- pKd (Inadl_9, Q8NI35): 3.65
- pKd (HTRA4, P83105): below the threshold
- pKd (NHERF4_1, Q86UT5-2): below the threshold
- pKd (LNX2_3, Q8N448): below the threshold
- pKd (SIPA1L2, Q9P2F8): below the threshold
- pKd (MPP7, Q5T2T1): 3.98
- pKd (ARHGEF11, O15085): below the threshold
- pKd (PCLO, Q9Y6V0): below the threshold

Now from value to binder:

- pKd (MAGI2_5, Q86UL8): below the threshold
- pKd (PARD3_3, Q8TEW0): below the threshold
- pKd (SYNJ2BP, P57105): 3.9
- pKd (SNTG2, Q9NY99): 4
- pKd (HTRA3, P83110): below the threshold
- pKd (IL16_1, Q14005): below the threshold
- pKd (NOS1, P29475): 3.76
- pKd (SNTG1, Q9NSN8): below the threshold
- pKd (SNTA1, Q13424): 4.05
- pKd (Inadl_3, Q8NI35): below the threshold
- pKd (TJP1_2, Q07157): below the threshold
- pKd (DLG2_2, Q15700): 3.74
- pKd (NHERF2_2, Q15599): 3.78
- pKd (ARHGEF12, Q9NZN5-2): 3.98
- pKd (SCRIB_2, Q14160): below the threshold
- pKd (PARD3B_1, Q8TEW8): below the threshold
- pKd (Inadl_4, Q8NI35): below the threshold
- pKd (MAST1, Q9Y2H9): 4.7
- pKd (Inadl_9, Q8NI35): below the threshold
- pKd (HTRA4, P83105): 4.04
- pKd (NHERF4_1, Q86UT5-2): 3.76
- pKd (LNX2_3, Q8N448): below the threshold
- pKd (SIPA1L2, Q9P2F8): below the threshold
- pKd (MPP7, Q5T2T1): below the threshold
- pKd (ARHGEF11, O15085): 4.04
- pKd (PCLO, Q9Y6V0): below the threshold
Binder: LPHGHSTTRV [NLGN4X, Q8N0W4]

- pKd (MAGI2_5, Q86UL8): 4.3
- pKd (PARD3_3, Q8TEW0): below the threshold
- pKd (SYNJ2BP, P57105): below the threshold
- pKd (SNTG2, Q9NY99): below the threshold
- pKd (HTRA3, P83110): below the threshold
- pKd (IL16_1, Q14005): below the threshold
- pKd (NOS1, P29475): 3.72
- pKd (SNTG1, Q9NSN8): below the threshold
- pKd (SNTA1, Q13424): below the threshold
- pKd (Inadl_3, Q8NI35): below the threshold
- pKd (TJP1_2, Q07157): below the threshold
- pKd (DLG2_2, Q15700): below the threshold
- pKd (NHERF2_2, Q15599): 4.47
- pKd (ARHGEF12, Q9NZN5-2): below the threshold
- pKd (SCRIB_2, Q14160): below the threshold
- pKd (PARD3B_1, Q8TEW8): 4.21
- pKd (Inadl_4, Q8NI35): below the threshold
- pKd (MAST1, Q9Y2H9): 4.26
- pKd (Inadl_9, Q8NI35): below the threshold
- pKd (HTRA4, P83105): below the threshold
- pKd (NHERF4_1, Q86UT5-2): 4.1
- pKd (LNX2_3, Q8N448): below the threshold
- pKd (SIPA1L2, Q9P2F8): below the threshold
- pKd (MPP7, Q5T2T1): below the threshold
- pKd (ARHGEF11, O15085): below the threshold
- pKd (PCLO, Q9Y6V0): below the threshold
Binder: GNSVLKSTQF [SLC22A12, Q96S37]
